The results in this text go back to the supplement of paper PMC5998384.

The test system of data set [1] is HeLa Kyoto. Description: melting temperature (median over replicates), in situ; higher = more thermally stable.
The test system of data set [2] is HeLa Kyoto. Description: thermal stability score vs G1/S (z-score of summed log2 fold changes over temperatures); higher = more thermally stable than in G1/S.
Data set [3] relates to HeLa Kyoto. Description: solubility in G1/S (NP-40 vs SDS abundance) (log2 ratio); higher = more soluble. The following applies: cell cycle stage: G1/S.
Data set [4] relates to HeLa Kyoto. Description: solubility change mitosis vs G1/S (difference of NP-40 vs SDS log2 ratios) (log2 ratio difference); higher = more soluble in mitosis.
[5] abbreviates: cell cycle stage: early G1 (4.5 h after nocodazole release).
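For melting temperature (median over replicates), in situ in this document: HeLa Kyoto cells synchronized by double thymidine or nocodazole block, proteins quantified by TMT10plex mass spectrometry, three independent biological replicates.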
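For solubility change mitosis vs G1/S (difference of NP-40 vs SDS log2 ratios) in this document: synchronized HeLa Kyoto cells (double thymidine block for G1/S, nocodazole release for mitosis), protein amounts in NP-40 versus SDS lysates quantified by mass spectrometry, three biological replicates.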
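For solubility in G1/S (NP-40 vs SDS abundance) in this document: HeLa Kyoto cells arrested at G1/S by double thymidine block, proteins quantified by TMT10plex mass spectrometry in mild NP-40 versus SDS extracts, three biological replicates.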
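For thermal stability score vs G1/S (z-score of summed log2 fold changes over temperatures) in this document: synchronized HeLa Kyoto cells, proteins quantified by TMT10plex mass spectrometry, three biological replicates, mitosis taken 0.5 h after nocodazole release, G1/S directly after double thymidine block.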

As to “MAPKKRPETQKTSEIVLRPRNKRSRSPLELEPEAKKLCAKGSGPSRRCDSDCLWVGLAGPQILPPCRSIVRTLHQHKLGRASWPSVQQGLQQSFLHTLDSYRILQKAAPFDRRATSLAWHPTHPSTVAVGSKGGDIMLWNFGIKDKPTFIKGIGAGGSITGLKFNPLNTNQFYASSMEGTTRLQDFKGNILRVFASSDTINIWFCSLDVSASSRMVVTGDNVGNVILLNMDGKELWNLRMHKKKVTHVALNPCCDWFLATASVDQTVKIWDLRQVRGKASFLYSLPHRHPVNAACFSPDGARLLTTDQKSEIRVYSASQWDCPLGLIPHPHRHFQHLTPIKAAWHPRYNLIVVGRYPDPNFKSCTPYELRTIDVFDGNSGKMMCQLYDPESSGISSLNEFNPMGDTLASAMGYHILIWSQEEARTRK [DDB2]”, the melting temperature in data set [1] (cell cycle stage: G1/S) turned out to be 55.7 °C; in data set [1] (cell cycle stage: mitosis), 56.7 °C. For the same sequence, the thermal stability score was -1.8 in data set [2] (setting [5]) and -2.6 in data set [2] (cell cycle stage: mitosis). Further, the “solubility in G1/S (log2)” value in data set [3] was -0.0537. For the same sequence, the “solubility change mitosis (log2)” value in data set [4] is -0.078.

Regarding “MAPMGIRLSPLGVAVFCLLGLGVLYHLYSGFLAGRFSLFGLGGEPGGGAAGPAAAADGGTVDLREMLAVSVLAAVRGGDEVRRVRESNVLHEKSKGKTREGAEDKMTSGDVLSNRKMFYLLKTAFPSVQINTEEHVDAADQEVILWDHKIPEDILKEVTTPKEVPAESVTVWIDPLDATQEYTEDLRKYVTTMVCVAVNGKPMLGVIHKPFSEYTAWAMVDGGSNVKARSSYNEKTPRIVVSRSHSGMVKQVALQTFGNQTTIIPAGGAGYKVLALLDVPDKSQEKADLYIHVTYIKKWDICAGNAILKALGGHMTTLSGEEISYTGSDGIEGGLLASIRMNHQALVRKLPDLEKTGHK [IMPAD1]”, the values for the melting temperature in data set [1] (cell cycle stage: G1/S) and in data set [1] (cell cycle stage: mitosis) were 59.1 °C and 58.9 °C, respectively. For the same sequence, the figures for the thermal stability score in data set [2] (setting [5]) and in data set [2] (cell cycle stage: mitosis) were 0.124 and -1.11, respectively. Moreover, the “solubility in G1/S (log2)” value in data set [3] was found to be 0.145. The “solubility change mitosis (log2)” value in data set [4] was -0.132.

As for “MAPPGSSTVFLLALTIIASTWALTPTHYLTKHDVERLKASLDRPFTNLESAFYSIVGLSSLGAQVPDAKKACTYIRSNLDPSNVDSLFYAAQASQALSGCEISISNETKDLLLAAVSEDSSVTQIYHAVAALSGFGLPLASQEALSALTARLSKEETVLATVQALQTASHLSQQADLRSIVEEIEDLVARLDELGGVYLQFEEGLETTALFVAATYKLMDHVGTEPSIKEDQVIQLMNAIFSKKNFESLSEAFSVASAAAVLSHNRYHVPVVVVPEGSASDTHEQAILRLQVTNVLSQPLTQATVKLEHAKSVASRATVLQKTSFTPVGDVFELNFMNVKFSSGYYDFLVEVEGDNRYIANTVELRVKISTEVGITNVDLSTVDKDQSIAPKTTRVTYPAKAKGTFIADSHQNFALFFQLVDVNTGAELTPHQTFVRLHNQKTGQEVVFVAEPDNKNVYKFELDTSERKIEFDSASGTYTLYLIIGDATLKNPILWNVADVVIKFPEEEAPSTVLSQNLFTPKQEIQHLFREPEKRPPTVVSNTFTALILSPLLLLFALWIRIGANVSNFTFAPSTIIFHLGHAAMLGLMYVYWTQLNMFQTLKYLAILGSVTFLAGNRMLAQQAVKRTAH [RPN2]”, the melting temperature in data set [1] (cell cycle stage: G1/S) stood at 54 °C; in data set [1] (cell cycle stage: mitosis) it was 53.7 °C. Also, the thermal stability score in data set [2] (setting [5]) is 1.07; in data set [2] (cell cycle stage: mitosis) it was 2.44. Moreover, in data set [3], the “solubility in G1/S (log2)” value was found to be 0.0246. In data set [4], the “solubility change mitosis (log2)” value was -0.162.

Turning to “MAPQSLPSSRMAPLGMLLGLLMAACFTFCLSHQNLKEFALTNPEKSSTKETERKETKAEEELDAEVLEVFHPTHEWQALQPGQAVPAGSHVRLNLQTGEREAKLQYEDKFRNNLKGKRLDINTNTYTSQDLKSALAKFKEGAEMESSKEDKARQAEVKRLFRPIEELKKDFDELNVVIETDMQIMVRLINKFNSSSSSLEEKIAALFDLEYYVHQMDNAQDLLSFGGLQVVINGLNSTEPLVKEYAAFVLGAAFSSNPKVQVEAIEGGALQKLLVILATEQPLTAKKKVLFALCSLLRHFPYAQRQFLKLGGLQVLRTLVQEKGTEVLAVRVVTLLYDLVTEKMFAEEEAELTQEMSPEKLQQYRQVHLLPGLWEQGWCEITAHLLALPEHDAREKVLQTLGVLLTTCRDRYRQDPQLGRTLASLQAEYQVLASLELQDGEDEGYFQELLGSVNSLLKELR [SIL1]”, the melting temperature worked out at 53.5 °C in data set [1] (cell cycle stage: G1/S) and 53.4 °C in data set [1] (cell cycle stage: mitosis). The thermal stability score in data set [2] (setting [5]) was -0.386; in data set [2] (cell cycle stage: mitosis), 0.264. Moreover, in data set [3], the “solubility in G1/S (log2)” value is 0.7. Besides, in data set [4], the “solubility change mitosis (log2)” value was -0.0794.

“MAPQVWRRRTLERCLTEVGKATGRPECFLTIQEGLASKFTSLTKVLYDFNKILENGRIHGSPLQKLVIENFDDEQIWQQLELQNEPILQYFQNAVSETINDEDISLLPESEEQEREEDGSEIEADDKEDLEDLEEEEVSDMGNDDPEMGERAENSSKSDLRKSPVFSDEDSDLDFDISKLEQQSKVQNKGQGKPREKSIVDDKFFKLSEMEAYLENIEKEEERKDDNDEEEEDIDFFEDIDSDEDEGGLFGSKKLKSGKSSRNLKYKDFFDPVESDEDITNVHDDELDSNKEDDEIAEEEAEELSISETDEDDDLQENEDNKQHKESLKRVTFALPDDAETEDTGVLNVKKNSDEVKSSFEKRQEKMNEKIASLEKELLEKKPWQLQGEVTAQKRPENSLLEETLHFDHAVRMAPVITEETTLQLEDIIKQRIRDQAWDDVVRKEKPKEDAYEYKKRLTLDHEKSKLSLAEIYEQEYIKLNQQKTAEEENPEHVEIQKMMDSLFLKLDALSNFHFIPKPPVPEIKVVSNLPAITMEEVAPVSVSDAALLAPEEIKEKNKAGDIKTAAEKTATDKKRERRKKKYQKRMKIKEKEKRRKLLEKSSVDQAGKYSKTVASEKLKQLTKTGKASFIKDEGKDKALKSSQAFFSKLQDQVKMQINDAKKTEKKKKKRQDISVHKLKL [MPHOSPH10]”: the melting temperature in data set [1] (cell cycle stage: G1/S) and in data set [1] (cell cycle stage: mitosis) was 52.4 °C in each case. Moreover, the thermal stability score was 3.5 in data set [2] (setting [5]) and 1.06 in data set [2] (cell cycle stage: mitosis). The “solubility in G1/S (log2)” value in data set [3] is -2.07. Moreover, in data set [4], the “solubility change mitosis (log2)” value was 1.06.

Regarding “MAPRLCSISVTARRLLGGPGPRAGDVASAAAARFYSKDNEGSWFRSLFVHKVDPRKDAHSTLLSKKETSNLYKIQFHNVKPEYLDAYNSLTEAVLPKLHLDEDYPCSLVGNWNTWYGEQDQAVHLWRFSGGYPALMDCMNKLKNNKEYLEFRRERSQMLLSRRNQLLLEFSFWNEPQPRMGPNIYELRTYKLKPGTMIEWGNNWARAIKYRQENQEAVGGFFSQIGELYVVHHLWAYKDLQSREETRNAAWRKRGWDENVYYTVPLVRHMESRIMIPLKISPLQ [NIPSNAP1]”, the results for the melting temperature in data set [1] (cell cycle stage: G1/S) and in data set [1] (cell cycle stage: mitosis) were 53.9 °C and 54.3 °C, respectively. Besides, the thermal stability score was -0.403 in data set [2] (setting [5]) and -2.28 in data set [2] (cell cycle stage: mitosis). The “solubility in G1/S (log2)” value in data set [3] is 0.0548. For the same sequence, the “solubility change mitosis (log2)” value in data set [4] is -0.0766.
